In PMC10477112, “APP-BACE1 Interaction and Intracellular Localization Regulate Aβ Production in iPSC-Derived Cortical Neurons” (Cellular and Molecular Neurobiology, 2023):

Target: T1, APP-derived C-terminal fragment (APP-CTF) (human (endogenous in iPSC-derived NPCs …, UniProt P05067 672-770))
T1 construct: also called C-terminal APP; C-termAPP; source: endogenous, human iPSC-derived NPCs and cortical neurons, fixed cells
Assay: proximity ligation; DuoLink PLA on fixed (4% PFA), permeabilised human iPSC-derived NPCs (day 45) and neurons (day 75); primary antibodies against APP (N-terminal or C-terminal), BACE1 and PSEN1; proximity of maximum 40 nm; PLA dot area divided by nuclear area
Conditions: partners not purified

B1: BACE1 (beta-secretase) (enzyme, UniProt P56817 46-501, looked up)
chain: ETDEEPEEPGRRGSFVEMVDNLRGKSGQGYYVEMTVGSPPQTLNILVDTGSSNFAVGAAPHPFLHRYYQRQLSSTYRDLRKGVYVPYTQGKWEGELGTDLVSIPHGPNVTVRANIAAITESDKFFINGSNWEGILGLAYAEIARPDDSLEPFFDSLVKQTHVPNLFSLQLCGAGFPLNQSEVLASVGGSMIIGGIDHSLYTGSLWYTPIRREWYYEVIIVRVEINGQDLKMDCKEYNYDKSIVDSGTTNLRLPKKVFEAAVKSIKAASSTEKFPDGFWLGEQLVCWQAGTTPWNIFPVISLYLMGEVTNQSFRITILPQQYLRPVEDVATSQDDCYKFAISQSSTGTVMGAVIMEGFYVVFDRARKRIGFAVSACHVHDEFRTAAVEGPFVTLDMEDCGYNIPQTDESTLMTIAYVMAAICALFMLPLCLMVCQWRCLRCLRQQHDDFADDISLLK
notes: BACE1, human, endogenous; also called β-secretase; source: endogenous, human iPSC-derived NPCs and cortical neurons, fixed cells; endogenous, SH-SY5Y cells, fixed
fold PLA colocalization against flAPP/BACE1 in NPCs (calculated): ≥ 6.7 times
